Results reported in patent publication US20260294251A1, “Method for Medical Imaging” (Integro Theranositcs, LLC, priority 2023, published 2026).
Read-outs that look alike come from different tables or passages of the source. Positions of bridges follow the written chain, without caps; N, C: chain ends. Non-standard residues stand in square brackets, D forms with d. Residues, ends and D or L forms follow the SMILES beside them. *: point of attachment. X1 = CC1(C)C(/C=C/C=C/C=C/C=C2/N(CCC(=O)*)c3ccc4ccccc4c3C2(C)C)=[N+](CCC(=O)[O-])c2ccc3ccccc3c21

Legend:
[1] = rat, in vivo, iv
Description: (§4) Appropriate bioanalytical methods were developed and validated to measure LS301 concentrations in rat plasma (LC-MS/MS) and various dosing formulations (HPLC-UV, UPLC) per good laboratory practice (GLP) regulations.

[2] = system: tumors; assay: Proof of concept imaging and biodistribution in mice after single IV delivery
[3] = system: Salmonella typhimurium (TA100, TA1535, TA98, TA1537) and Escherichia coli (WP2uvrA); assay: GLP bacterial mutagenicity (Ames) test; type: cell-based; conditions: doses up to 1000 μg/plate; previous study
Description: (§1) LS301 was negative for inducing structural/numerical chromosomal aberrations in Wolff-Bloom-Litton Chinese hamster ovary (CHO-WBL) cells with and without an S9 activation system. In a previous study, the potential for LS301 to cause genotoxicity was evaluated in a GLP bacterial mutagenicity (Ames) test in 4 strains of Salmonella typhimurium (TA100, TA1535, TA98, TA1537) and Escherichia coli (WP2uvrA) at doses up to 1000 μg/plate. The results were negative for LS301 mutagenicity.

[4] = Pharmacokinetics in the rat after single IV delivery
Description: as §4

[5] = Toxicokinetics at the NOAEL in the rat toxicity study; type: in vivo; conditions: plasma, iv, 20 mg/kg, Day 1, at NOAEL 20 mg/kg; for AUC(0-t) at 48 h: read-out: AUC0-48h; for C0: read-out: Co
Description: In this study, the NOAEL was considered 20 mg/kg. The corresponding AUC0-48h and Co of LS301 at the established NOAEL on Day 1 were 14200 h*ng/ml and 69900 ng/mL for males and 14900 h*ng/mL and 98800 ng/mL for females, respectively. Therefore, the NOAEL of 20 mg/kg is equivalent to a 3.226 mg/kg human dose.

[6] = system: mouse breast cancer model; conditions: in vivo, iv
[7] = system: respiratory system functional parameters; assay: Respiratory safety pharmacology after single IV administration; type: in vivo, Sprague-Dawley rats; conditions: single IV up to 20 mg/kg, up to 24 hours
Description: (§2) Results from safety pharmacology studies further support the potential safety of L301 and LS301-IT.

[8] = system: cardiovascular function; assay: Cardiovascular safety pharmacology after single IV administration; type: in vivo, rat; conditions: rats, single IV up to 20 mg/kg, up to 24 hours
Description: as §2

[9] = system: rats; assay: Single IV dose toxicity study in rats; type: in vivo, rat
Description: (§3) Therefore, the changes were considered non-adverse.

[10] = Single IV dose toxicity study in rats; type: in vivo, rat; conditions: rat, in vivo, iv; for selectivity ratio: starting dose 0.025 mg/kg, read-out: safety margin
Description: as §3

[11] = system: tumors; conditions: mouse, in vivo, iv
[12] = biological target: human Ether-à-go-go related gene (hERG) (Homo sapiens, UniProt Q12809); assay: human Ether-à-go-go related gene (hERG) assay; type: cell-based
Description: as §2

[13] = system: Wolff-Bloom-Litton Chinese hamster ovary (CHO-WBL) cells; assay: Chromosomal aberration test in CHO-WBL cells; type: cell-based; conditions: with and without an S9 activation system
Description: as §1

[14] = system: male rats; assay: In-vivo safety pharmacology (functional observation battery) in male rats; set-up: species or system rat
Description: as §2

Chain of human Ether-à-go-go related gene (hERG) (Q12809 whole entry): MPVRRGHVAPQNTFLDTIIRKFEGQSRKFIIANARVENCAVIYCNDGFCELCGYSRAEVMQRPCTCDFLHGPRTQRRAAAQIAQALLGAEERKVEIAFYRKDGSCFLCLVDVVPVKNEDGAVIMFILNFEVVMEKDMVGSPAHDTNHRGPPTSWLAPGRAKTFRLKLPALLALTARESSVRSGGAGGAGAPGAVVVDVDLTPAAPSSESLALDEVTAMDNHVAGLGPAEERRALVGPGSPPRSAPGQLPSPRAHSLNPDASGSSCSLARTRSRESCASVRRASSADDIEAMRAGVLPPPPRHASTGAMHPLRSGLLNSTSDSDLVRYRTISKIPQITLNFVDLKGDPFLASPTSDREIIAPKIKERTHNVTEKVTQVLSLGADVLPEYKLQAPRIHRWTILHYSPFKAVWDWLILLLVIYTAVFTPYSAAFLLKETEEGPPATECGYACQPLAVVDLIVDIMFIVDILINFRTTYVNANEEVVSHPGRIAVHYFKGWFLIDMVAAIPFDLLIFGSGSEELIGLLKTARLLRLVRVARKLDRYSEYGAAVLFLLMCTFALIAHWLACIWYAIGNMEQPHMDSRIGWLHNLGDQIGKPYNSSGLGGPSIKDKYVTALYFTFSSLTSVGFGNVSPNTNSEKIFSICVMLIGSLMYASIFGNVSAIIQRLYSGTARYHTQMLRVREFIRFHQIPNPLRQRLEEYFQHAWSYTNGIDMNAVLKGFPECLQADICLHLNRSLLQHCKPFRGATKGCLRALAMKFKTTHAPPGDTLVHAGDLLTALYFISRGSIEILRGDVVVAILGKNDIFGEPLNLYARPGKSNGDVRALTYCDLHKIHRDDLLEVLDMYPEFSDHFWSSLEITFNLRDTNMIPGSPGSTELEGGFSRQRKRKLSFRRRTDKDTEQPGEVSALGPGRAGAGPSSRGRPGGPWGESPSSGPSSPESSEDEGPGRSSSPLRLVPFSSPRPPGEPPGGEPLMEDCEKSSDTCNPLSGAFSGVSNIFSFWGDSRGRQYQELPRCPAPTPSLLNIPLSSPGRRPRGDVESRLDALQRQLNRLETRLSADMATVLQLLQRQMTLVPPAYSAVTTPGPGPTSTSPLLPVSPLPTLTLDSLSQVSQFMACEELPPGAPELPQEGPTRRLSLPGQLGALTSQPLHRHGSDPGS

SMILES: CC1(C)C(/C=C/C=C/C=C/C=C2/N(CCC(=O)N[C@@H]3CSSC[C@@H](C(=O)N[C@@H](CCCCN)C(=O)O)NC(=O)[C@@H]4CCCN4C(=O)[C@H](CO)NC(=O)[C@H](CC(=O)O)NC(=O)[C@H](CCCNC(=N)N)NC(=O)CNC3=O)c3ccc4ccccc4c3C2(C)C)=[N+](CCC(=O)[O-])c2ccc3ccccc3c21 [LS301, cypate-cyclo(Cys-Gly-Arg-Asp-Ser-Pro-Cys)-Lys-OH] (X1-[dC]GRDSPCK-OH; disulfide 1-7)
- tissue distribution [1]: widely distributed to tissues
- volume of distribution [1]: greater than the total volume of body water in humans
- accumulation in other tissues [2]: accumulated in other tissues, especially the excretory organs of the liver and kidneys
- binding and accumulation in tumors [2]: could bind and accumulate in tumors
- tumor-to-background ratio ([2]; four hours post-injection): clear tumor-to-background ratio
- mutagenicity (Ames) [3]: negative
- half-life ([4]; rat): fewer than five hours
- systemic exposure versus dose ([4]; rat): increased proportionally with dose
- difference in systemic exposure between male and female ([4]; rats): No differences were seen
- AUC(0-t) at 48 h ([5]; females): 14900 ng·h/mL
- C0 ([5]; females): 98.8 µg/mL
- AUC(0-t) at 48 h ([5]; males): 14200 ng·h/mL
- C0 ([5]; males): 69.9 µg/mL
- tissue distribution [6]: distributes and accumulates in tumor and non-tumor tissues, especially the liver and kidneys
- respiratory system functional parameters (tidal volume, respiratory rate, derived minute volume) [7]: did not affect respiratory system functional parameters
- cardiovascular function [8]: did not affect cardiovascular function
- mortalities or changes in body weight, food consumption, ophthalmology, hematology, coagulation, and urinalysis ([9]; rats, up to 20 mg/kg LS301): no mortalities or test article-related changes
- tolerability ([9]; rats, up to 20 mg/kg LS301): tolerated LS301 and LS301-IT well
- resolution of discoloration ([9]; ≥10 mg/kg, rat toxicity study): resolved on Day 15
- NOAEL ([10]; correction factor of 0.88, read-out: corrected NOAEL): 17.6 mg/kg
- NOAEL ([10]; single IV, read-out: NOAEL): 20 mg/kg
- selectivity ratio ([10]; NOAEL 20 mg/kg): 129
- selectivity ratio ([10]; corrected NOAEL 17.6 mg/kg): 114
- tumor uptake (biodistribution) [11]: high uptake in tumors
- IC50 [12]: > 9.98 µM
- structural/numerical chromosomal aberrations [13]: negative
- mortality ([14]; male rats, up to 20 mg/kg): No mortalities
- functional observation battery (FOB) parameters ([14]; male rats, up to 20 mg/kg, motor activity, behavior, coordination, reflexes, body temperature): no effects
- discoloration (green) ([14]; male rats, ≥10 mg/kg): transient LS301-related discoloration (green)
- effects on central nervous, cardiovascular, and respiratory functions ([14]; rats, doses up to 20 mg/kg): no significant effects
- tolerability ([14]; rats, doses up to 20 mg/kg): Rats tolerated LS301 well
